Data published in the nanobody polyreactivity screen of Harvey et al. (2022).

test: yeast display, Sf9 membrane polyspecificity reagent, FACS + sequencing; frameworks hold sequencing errors
Summary of the method: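 A synthetic nanobody library was expressed on Saccharomyces cerevisiae BJ5465 by galactose induction for 36–48 hours. The library was stained for 1 hour at 4 °C with 10% biotinylated, detergent-solubilized Sf9 membrane reagent and enriched with streptavidin microbeads before FACS. Low and high (top ~1%) gates were set on anti-HA fluorescence for expression and streptavidin fluorescence for reagent binding, and each polyreactivity label reflects the gate of origin.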

Sequence | polyreactivity (PSR sort gate)
QVQLVESGGGLVQAGGSLRLSCAASGRTFPGYAMGWYRQAPGKERELVAGISYRGGSTYYADSVKGRFTISRDNAKNTVYLQMNSLKPEDTAVYYCNATYGGPYYIQYDYWGQGTQVTVSS | low polyreactivity
QVQLVESGGGLVQAGGSLRLSCAASGRTFPGYAMGWYRQAPGKERELVATITFSDGSTYYADSVKGRFTISRDNAKNSVYLQMNSLKPEDTAVYYCNARRSYFLRYGVNYWGQGTQVTVSS | low polyreactivity
QVQLVESGGGLVQAGGSLRLSCAASGRTFPGYAMGWYRQATGKERELVAGISYRGGSTYYADSVKGRITISRDTAKNTVYFQINSLKPVDTAVYYCARDYSRHKGDYWGQGTQVTVSS | low polyreactivity
QVQLVESGGGLVQAGGSLRLSCAASGRTFPHYAMGWYRQAPGKVRELVAAISSRGGSTYYADSVKGRFTISRDNVKNTVYLQMNSLKPEDTAVYYCAATVGLYRSREYGYWGQGTQVTVSS | low polyreactivity
QVQLVESGGGLVQAGGSLRLSCAASGRTFPNYAMGWYRQAPGKERELVAAITRGVRTHYADSVKGRFTISRDNAKNTVYLQLNSLKQEDTAVYYCARSYRSDGSRFGYWGQGTQVTVSS | low polyreactivity
QVQLVESGGGLVQAGGSLRLSCAASGRTFPPYAMGWYRQAPRKESELVAAISGSGASTYYADSVKGRFTISRDNAKNTVYLQMNSLKPEDTAVYYCAARRGSGKFGKYRGVDYWGQGTQVTVSS | high polyreactivity
QVQLVESGGGLVQAGGSLRLSCAASGRTFPQNAMGWYRQAPGKERELVAAISRSGGRTYYADSVKGRFTISRDNAKNTVYLQMNSLKPEDTAVYYCNTDPRYPRYDYSGQGTQVTVSS | high polyreactivity
QVQLVESGGGLVQAGGSLRLSCAASGRTFPRYAMGWYRQARGKEREMVAAISGTGGSTYYADSVKGRFTISRDNAKNTFYLQMNSLKPEDTAVYYCAAAFRDGFTRRYGYWGQGTQVTVSS | high polyreactivity
QVQLVESGGGLVQAGGSLRLSCAASGRTFPRYGMGWYRQAPVKERELVATIRTGGRTNYADSVKGRFTISRDNAKNTVYVLMNSQKPEDTAVYYCATDSSKHPYSPTLLKFDYWGQGTQVTVSS | low polyreactivity
QVQLVESGGGLVQAGGSLRLSCAASGRTFPRYTMGRYRQAPRKERELVAASATGGSTNYADSVKGRFTISRDNAKNTVYLHMNSLKPEDTAVYYCAARPYSNRYVLGVYYWGKGTQVTVSS | high polyreactivity
QVQLVESGGGLVQAGGSLRLSCAASGRTFPRYVMGWYRQAPGKERDLVAAIRRSGGSTYYADSVKGRFTISRDNAKNTVYLQMNSLKPDDTAVYYCNRVVYTYISTGSRHGRYYYWGQGTQVTVSS | high polyreactivity
QVQLVESGGGLVQAGGSLRLSCAASGRTFPSYTMGWYRQAPGKERELVAAITWTGGSTYYADSVKGRFTISRDNAKNSVYLQMNCLKPEDTAVYYCADDDYWGQGTQVTVSS | low polyreactivity
QVQLVESGGGLVQAGGSLRLSCAASGRTFPTYTMGWYRQAPGQERELVAAITRGGSTKYADSVKGRFTISRDNAKNTVYLQMNSLKPEDTAVYYCAAVYRYRHSFAYYRHEMDYWGQGTQVTVSS | low polyreactivity
QVQLVESGGGLVQAGGSLRLSCAASGRTFPVNGMGWYRQAPGKERELVAAITGGGSTNYADSVKGRFTITRDNAKNTVYLQMNSLKPEDTAVYYCAAGSYSRYLYSLYFDFDYWGQGTQVTVSS | low polyreactivity
QVQLVESGGGLVQAGGSLRLSCAASGRTFPVYAMGRYRPAPGKERELVAAISWSGGTTYYADSVPGRFTISRDNAKNTVYLQKHSLKPEDTAVYFCAARFGVRRRYDYWGQGTQVTVSS | high polyreactivity
QVQLVESGGGLVQAGGSLRLSCAASGRTFPVYAMGWYRQAPGKERELVAAIRARSVRTYYADSVKGRFTISRDNAKNTVYLQMNSLKPEDTAVYYCAAYYLNPGMDYWGQGTQVTVSS | high polyreactivity
QVQLVESGGGLVQAGGSLRLSCAASGRTFPVYSMGWYRQAPGKERELVDVITTRVTSTYYADSVKGRFTISRDNAKNSVYLQMNSLKPEDTAVYYCNARTAYTGNYGPPKGGYWGQGTQVTVSS | high polyreactivity
QVQLVESGGGLVQAGGSLRLSCAASGRTFPWKVMGWYRQPPGKERELVAAITRSGGSTYYADSVKGRFTISRDNAKNTVYLQMNSLKQEDTAVYYCAKRGYTSSRRWIYDYWGQGTQVTVSS | high polyreactivity
QVQLVESGGGLVQAGGSLRLSCAASGRTFPWYTMGWYRQAPGKERELVAAISWSGGSTFYADSVKGRFTISRDNAKNTVYLQMNSLKPEDTAVYYCAARSRPTVQRGYAYGYWGQGTQVTVSS | low polyreactivity
QVQLVESGGGLVQAGGSLRLSCAASGRTFPYNAMGWSRQAPGKERELVAVISSGGGRTYYADSVKGRFTISRDNAKNTVYLQMNSLKPEDTAVYYCNKGGYAIRYDYYWGQGTQVTVSS | high polyreactivity

Sequence | polyreactivity (PSR sort gate)
QVQLVESGGGLVQAGGSLRLSCAASGRTFPYNAMGWYRQAPGKEMELVAAITKSAGRTYYAYSVKGRFTISRDNAKNTVYLQMNSLKPEDTAVYYCNTVTVAYGYTRLYAQYYYWGQGTQVTVSS | high polyreactivity
QVQLVESGGGLVQAGGSLRLSCAASGRTFPYNAMGWYRQAPGKERELVAAISSGGSTNYADSVKGRFTITRDNAKKTVYLQRNSLKPEDTAVYYCAVTGWPRYTWYSYGYWGQGTQVTVSS | low polyreactivity
QVQLVESGGGLVQAGGSLRLSCAASGRTFPYNAMGWYRQAPGKERELVAVISSSGGSTYYADSVKGRFTISRDNAKNTVYLQMNSLKPEDTAVYYCNTRPYYYRRPGYRYSGYDYWGQGTQVTVSS | high polyreactivity
QVQLVESGGGLVQAGGSLRLSCAASGRTFPYNVMGWYRQAPRKERELVAAITYDGGNTYYADSVKGRFTISRDNAKNTVYLQMNSLKPEDTAVYYCARPLTYYDEFDSWGQGTQVTVSS | low polyreactivity
QVQLVESGGGLVQAGGSLRLSCAASGRTFPYYAMGWYRQAPGKEMELVAAISSSGGRTYYADSVKGRFTISRDNAKNTVYLQMNSLKPEDTAVYYCNAESTYYPSGEDYWGQGTQVTVSS | low polyreactivity
QVQLVESGGGLVQAGGSLRLSCAASGRTFPYYAMGWYRQAPGKEREFVAGISRTGGSTYYADSVKGRFTISRDNAKNTVYLQMNSLKPEDTAVYYCNAPYILTQQGGRRYDYWGQGTQVTVSS | high polyreactivity
QVQLVESGGGLVQAGGSLRLSCAASGRTFPYYAMGWYRQAPGKETELVASISYRGGNTYYADSVKGRFTISRDNAKNTVYLQMNSQKPEDTAVYYCAKTGRYSARDDYWGQGTQVTVSS | high polyreactivity
QVQLVESGGGLVQAGGSLRLSCAASGRTFPYYDKGWYRQAPGKERELVATISWSGGTTYADSVKGRFTISRDNAKNTVYLQMNSLKPEDTAVYFCAAVSYVYRYYWGQGTQVTVSS | low polyreactivity
QVQLVESGGGLVQAGGSLRLSCAASGRTFQDNAMGWSRQEPGKERELVAAISWRGGSTNYADSVKGRFTISRDNAKNTVFLQLNSLKPEDTAVYYCNRDPRKYGKLDYWGQGTQVTVSS | low polyreactivity
QVQLVESGGGLVQAGGSLRLSCAASGRTFQDNAMGWYRQAPGKERELVAAMSWRGGSTNYADSVKGRFTISRDNAKNTVYLQMKSLKPEDTAVYYCYRDQRKYGKLDYWVQGTQVTVSS | low polyreactivity
QVQLVESGGGLVQAGGSLRLSCAASGRTFQFYAMGWYRQAPGKERELVAAITYSGDSTYYADSVKGRFTISRDNAKNTVYLQMNSLKPEDTAVYYCAAGVWFYWYEYDYWGQGTQVTVSS | high polyreactivity
QVQLVESGGGLVQAGGSLRLSCAASGRTFQFYVMGWYRQAPGKERELVASIRSGGSTNYADSVKGRFTISRDNAKNTVYLQMNSLKPEDTAVYYFAARVASPYYRYDFWGQGTQVTVSS | low polyreactivity
QVQLVESGGGLVQAGGSLRLSCAASGRTFQKNTMGWYRQPPGKERELVAAIDYSATTTYYADSVKGRFTSSRDTAKNTVYLQMNSLKPEDTAVYYCAARWSYPRWEFDYWGQGTQVTVTS | high polyreactivity
QVQLVESGGGLVQAGGSLRLSCAASGRTFQLNAMGWYRQAPGKERELVAAISTRGGSTYYADSVKGRFTISRDNAKNTVYLQMNRLKPEDTAVYYCAAVTKTLYRSYFLMYYWGQGTQVTVSS | high polyreactivity
QVQLVESGGGLVQAGGSLRLSCAASGRTFQLNAMGWYRQGPGNERELVAAISTRGGSTYYADSVKGRFTISRDNAKNTVYLQMNSLKPEDTAVYYCAKDPSFTRGYKEGGGYDYWGQGTQVTVSS | high polyreactivity
QVQLVESGGGLVQAGGSLRLSCAASGRTFQLYAMGWYRQAPGKEMELVAAISTRGGSTYYADSVKGRFTISRDNAKNTVYLLMNSLKPEDTAVYYCAKDPSFTRGYKEGGGYDYWGQGTQVNVSS | high polyreactivity
QVQLVESGGGLVQAGGSLRLSCAASGRTFQRYTMGWYRQAPGKERELVASISRSGGSTYYADSVKGRFTISRDNAKNTVYLQMNSLKPEDTAVYYCATRSLFWNRNHYRVSSPVLYDYWGQGTQVTVSS | high polyreactivity
QVQLVESGGGLVQAGGSLRLSCAASGRTFQSYAMGWYRQEPGKERELVAAITITGGRTYYADSVKGRFTISRDNAKNTVYLQMNSLKPEDTAVYYCAAEEYSHYTLGYVYWGQGTQVTVSS | low polyreactivity
QVQLVESGGGLVQAGGSLRLSCAASGRTFQTNAMGWYRQAPGKERELVAAISSTGGSTYYADSVKGRFTISRDNAKNTVYLQMNRLKPEDTAVYYCNAGRTYRYDYWGQGTQVTVSS | high polyreactivity
QVQLVESGGGLVQAGGSLRLSCAASGRTFQTNAMGWYRQAPGKERELVAAISWSGGRTYYADSVKGRFTISRDNAKNTVYLQMNSLKPEDTAVYYCAARQWYRYKVRFDYCGQGTQVTVSS | high polyreactivity
